Experiments:
[1] = biological target: WEEV strain California virus-like particles (Western equine encephalitis virus, strain California); assay: ELISA
[2] = biological target: human VLDLR LA1 fused to human IgG1 Fc (human) (UniProt P98155); assay: BLI
[3] = biological target: human VLDLR LA2 fused to human IgG1 Fc (human) (UniProt P98155); assay: BLI
[4] = biological target: human VLDLR LA3 fused to human IgG1 Fc (human) (UniProt P98155); assay: BLI
[5] = biological target: human VLDLR LA5 fused to human IgG1 Fc (human) (UniProt P98155); assay: BLI
[6] = biological target: WEEV California E1 domain III fused to human IgG1 Fc (Western equine encephalitis virus, strain California); assay: BLI

Substance | Kd [1] [µM] | other results
human VLDLR LA1-5 fused to human IgG1 Fc (from UniProt P98155-1 28-236) (Fc fusion) | 0.41 | 
human VLDLR LA3 fused to human IgG1 Fc (from UniProt P98155-1 111-151) (Fc fusion) | 10.9 | 
human VLDLR LA1-3 fused to human IgG1 Fc (from UniProt P98155-1 28-152) (Fc fusion) | 0.47 | 
human VLDLR ligand-binding domain (LA1-8) fused to human IgG1 Fc (from UniProt P98155-1 28-355) (Fc fusion) | 1.21 | 
WEEV strain California virus-like particles (complex) |  | Kd [2]: 0.00011 µM; Kd [3]: 0.00159 µM; Kd [4]: 0.00609 µM; Kd [5]: 0.00037 µM
human VLDLR LA1-2 fused to human IgG1 Fc (from UniProt P98155-1 28-113) (Fc fusion) | 1.63 | 
human VLDLR LA5 fused to human IgG1 Fc (from UniProt P98155-1 191-236) (Fc fusion) | 7.77 | 
human VLDLR LA3 with 6x His tag (from UniProt P98155-1 111-151) (domain or fragment) |  | Kd [6]: 0.83 µM
human VLDLR LA5 with 6x His tag (from UniProt P98155-1 191-236) (domain or fragment) |  | Kd [6]: 0.808 µM

Source: PMC12800238
